The nanobody polyreactivity screen of Harvey et al. (2022)

Test: yeast display, Sf9 membrane polyspecificity reagent, FACS + sequencing; frameworks hold sequencing errors
Method in brief: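 Galactose induction of a Saccharomyces cerevisiae BJ5465 synthetic nanobody display library ran 36–48 hours. The cells were then stained for 1 hour at 4 °C with 10% biotinylated, detergent-solubilized Sf9 membrane reagent, pulled down on streptavidin microbeads and FACS-sorted into low and high (top ~1%) gates on expression and reagent-binding fluorescence. Labels for polyreactivity follow the gate of origin.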

Sequence | polyreactivity (PSR sort gate)
QVQLVESGGGLVQAGGSLRLSCAASGLTFEWYTMGWYRQAHGKEREMVAVITVSGSSTYYADSVKGRFTISRDNAKNTVYLQMNSLKPEDTAVYYCNADWSFYSYTLYDYWGQGSQVTVSS | low polyreactivity
QVQLVESGGGLVQAVGSLRLSCAASGSTFDIYAMGWYRQAPGKERELVAAITSGGSTYADSVKGRFTISRDNAKNTVYLQMNSLKPEDTAVYYCNADRWFGNYLHLSFLNDYWGQGNQVTVSS | low polyreactivity
QVQLVESGGGLVQAGGSLRLSCAASGSTLGVNAMGWYRQAPGKEREFVAAITGRGGNTYYADSVKGRFTISRDNAKNTVYLQMNSLKPEDTAVYYCAARVKYTRYQSILDYYYWGQGTQVTVSS | high polyreactivity
QVQLVESGGGLVQAGGSLRLSCAASGRIFKRNAMGWYRQAPGKERELVAAISYSGGSTYYADSVKGRFTISRDNAKNTVYLQMNSLKPEDTAVYYCAVDRYPTGITKYDYWGQGTQVTVSS | high polyreactivity
QVQLQESGGGLMQAGGNLRLSCAASGYISTNDDMDWYRQAPGKERELVARIDDGAITNYADSVKGRFTISRDNAKKTVYLQMNSLKPEDTAVYYFAVYSGDDYYHDYWGQGTQVTVSS | low polyreactivity
QVQLVESGGGLVQAGGSLRLSCAASGSTFDYYVMGWYRQAPGKERELVAAISHNAGSTYYADSVKGRFTISRDNAKNTVYLQMNSLKPEDTAVYYCAAPDYRNGVRYPLDYWGQGTQVTVSS | low polyreactivity
QVQLVESVGGLVQAGGSLRLSCAASGITLYGYAMGWYRQAPGKERELVAAISWRGGRTYYADSVKGRFTISRDNAKNTVYVQMNSLKPEDTAVYYCLARSYYNWYDYWGQGTQVTVSS | high polyreactivity
QVQLQESGGCLVQAGGSLRKSCAASGNIFDADIMGWYRQAPGKERELVASITDGRRTNYADSVKGRYTISRDSENNTVYLQLNSLKAEDTAVYYCAAIAYPVVPTYFDYDSDFFHWGQGTQVTVSS | high polyreactivity
QVQLVESGGGLVQAGGSLRLSCAASGSIIFAYAMGWYRQAPGKERELVAAITTGVSTNYADSVKGRFTISRDNAKNTVYLQMNSLKPEDTAVYYCNADVDYGFDAGVAVQVVIHDYWGQGTQVTVSS | low polyreactivity
QVQLVESGGGLVQAGGSLRLSCAASGGTFRPYAMGWYRQAPGKERELVATIRSSGGRTYYADSVKGRFTISRDNAKNTVYLQMNSLKPDDTAVYYCAKRAQTYYGYDYWGQGTQVTVSS | high polyreactivity
QVQLVESGGGLVQAGGSLRLSCAASGSTFLYYAMGWYRQEPGKEREFVASISGSGGSTNYADSVKGRFTISRDNAKNTVYLQMNSLKPEDTAVYYCAKEYVTEFQGYYYWGQGTQVTVSS | low polyreactivity
QVQLVESGGGLVQAGGSLRLSSAASGITFRRYAMVWYRQAPGKERELVASITRGGSTSYADSVKGRFTISRDNAKNTVYLQMNSLKPEDTAVYYCNTRFGYQFDYYYWGQGTQVTVSS | high polyreactivity
QVQLVESGGGLVQAGGSLRLSCAASGRTFSPNAMGWYRQAPGKEREFVAAITWSGGGTFYADSVKGRFTISRDNAKNTVYLQMNSLKPEDTAVYYCAARLDTYQTHSVITPAALYYWGQGTQVTVSS | low polyreactivity
QVQLVESGGGLVQAGCSLRLSCAATGRSFRRNTMGWYRQAPGKERELVAAISSSGSSTYYADSVKGRFTISRDNAKNTVFLQMNSLKPEDTAVYYCAARGRGQPFVRYDYWGQGTQVTVSS | high polyreactivity
QVQLVESGGGLVQAGGSLRLSCAASGFIFSNYAMGWYRQAPGKERELVARISSSGGSTYYADSVKVRFTISRDIAKNTVYLQMNSLKPEVTAVYYCAAGFNLPAWGWAYYYWGQGTQVTVSS | high polyreactivity
QVQLVESGGGLVQAGGSLRLSCAASGYIFKIKAMGWYRQAPGKERELVATITWSTGTTYYADSVKGRFTISRDNAKNTVYLQMNSLKPEDTAVYYCNATAIIRIGVLPGDYWGQGTQVTVSS | low polyreactivity

Sequence | polyreactivity (PSR sort gate)
QVQLVESGGGLVQAGGSLRLSCAASGRTIRRNARGWYRQAPGKERELVAGISGSGTITYADSVKGRVTISRDNAKNTVYLQMNSLKPEDTAVYYCAARRKSFYTFYYWGQGTKVTVSS | high polyreactivity
QVQLVESGGGLVQAGGSLRLSCAASGFTFIRYAMGWYRQAPGKEREFVAAISWRVGITYYADSVKGRFTMSRDNAKNTVYLQMNSLKPEDTAVYYCARDYRNPPFAYEYWGQGTQVTVSS | low polyreactivity
QVHLVESGGGLVQAGGSLRLSCPASGRTLDSNAMGWYRQAPGKERELVAAISSAGSTNYADSVKGRFTISRDNAKNTVYLQMNSLKPEDTAVYYCAADLIGSHDYWGQGTQVTVSS | low polyreactivity
QVQLVESGGGLVQAGGSLRLICAASGRTFRHNAMGWYRQAPGKERELVAAISSSGTNTHYADSVKGRFTISRDNAQNTVYLQMNSLKPEDTAVYYCAADRWGARRKQYHENGYWGQGTQVTVSS | high polyreactivity
QVQLVESGGGLVQAGGSLRLSCAASGSTFVYYTMGLYRQAPGKERELVAAISWRGDDTYYSDSVKGRFTISRDNAKNTVYLQMNSLKPEDTAVYYCAGEPVSTYYWTFGDYWGQGYQVTVSS | low polyreactivity
QVQLVESGGGLVQAGGSLRLSCAASGRTLNTYTMGWYRQAPGKERELVAAITWRGGRTYYADSVKRRFTISRDYAKNTVYLQMNSLKPEDTAVYYCAAVRRNKPVGYGYWGQGTQVTVSS | high polyreactivity
QVQLVESGGGLVQAGGSLRLSCAASGITFTVYAMGWYRQAPGNEREVVAVINESGGSTYYADSVKGRFTISRDNAKNTVYLQMNSLKPEDTAVYYCNKTRVYVSSTYDYWGQGTQVTVSS | low polyreactivity
QVQLVESGGGLVQAGGSIRLSCAASGRIFKGYAMGSYRQAPGKERELVAAISSRGGITYYADSVKGRFTISRDNAKNSVYLEMNSLNPEDTAVYYCAAVYKWSRYGGYKYWGQGTQVTVSS | low polyreactivity
QVQLVESGGGLVQAGGSLRLSCAASGLIFRWYAMGWYRQAPGKEREMVAAISRRGGTTNYADSVKGRFTISRDNAKNTVYLQMTSLKPEDTAVYYCAADYQSVGGAEYDYWGQGTQVTVSS | high polyreactivity
QVQLVESGAGLVQAGGTLRLSCAASGRTRQYNDMGWYRQAPGKERELVAAMTWSGGLTYYADSVKGRFTISRDNAKNTVYLKMNCLKPEDTAVYYCAVDGGTPGALRRFNYWGQGTQVTVSS | high polyreactivity
QVQLVESGGGLVQAGGSLRLSCAASGRLMGWYRQAPGKERELVAAIRVSSGSTYYADSVKGRFTISRDNAKNTVYLQMNSLKPEDTAVYYCAKYVYLGYVRQVPYFRYDYWGQGTQVTVSS | high polyreactivity
QVQLVESGGGLVQAGGSLRLSCAASGRIFWSNAMGWYRQAPGKERELVAAISYSGGSTYYADSVKGRFTISRDNAKNTVYLQMNSLKPEDTAVYYCAALFRPRVHRFDYWGQGTQVTVSS | low polyreactivity
QVQLVESVGGLVQAGGSLRISCAASGRIFSGNAMGWYRQAPGKERELVASISRSGGRTRYADSVKGRFTISRDNAKNTVYLQMNSLKPEDTAVYYFTALSTQSYYFTYAGYDYWGQGTQVTVSS | high polyreactivity
QVQLVESGRGLVQAGGSLRLSCAASGSIFIANPMGWYRQAPGKQREFVADITLNGGSTYYADSVKGRFTISRDNAKNTVYLEMNRLNPEDTAVYYCAADWVWVAPQYWIVEYDYWGQGTQVTVSS | low polyreactivity
QVQLVESGGGLVQAGGSLRLSCSASGSIFSYYAMGWYRQAPGKERELVAAISRSGGSTYYADSVKGRFTISRDNAKNTVYLQMNSLKPEDTAVYYCAATRIHYPSYDYWGQGTQVTVSS | high polyreactivity
